Experimental findings from PMC3360035 (PLoS ONE, 2012) are described below.

The test addresses Human γD-crystallin I90F (human, UniProt P07320 1-174, I90F). In words: cell-based or functional assay.

B1: αB-crystallin, wild type (natural protein, UniProt P02511 1-175, looked up)
chain: MDIAIHHPWIRRPFFPFHSPSRLFDQFFGEHLLESDLFPTSTSLSPFYLRPPSFLRAPSWFDTGLSEMRLEKDRFSVNLDVKHFSPEELKVKVLGDVIEVHGKHEERQDEHGFISREFHRKYRIPADVDPLTITSSLSSDGVLTVNGPRKQVSGPERTIPITREEKPAVTAAPKK
Take B1: the “suppression of aggregation on dilution out of 5 M GdnHCl (from maximum A350), αB in 5-fold molar excess” value was 70%.
